Results on five molecules are retold here after PMC3737334 (RNA Biology, 2013).

Data set [1] deals with T1, Cas5 (Cas5/Cas7 core complex);Cas7 (Cas5/Cas7 core complex) (Sulfolobus solfataricus P2?;Sulfolobus …, UniProt Q97Y92;Q97Y91 1-240;1-321, |).
T1 sequence 1: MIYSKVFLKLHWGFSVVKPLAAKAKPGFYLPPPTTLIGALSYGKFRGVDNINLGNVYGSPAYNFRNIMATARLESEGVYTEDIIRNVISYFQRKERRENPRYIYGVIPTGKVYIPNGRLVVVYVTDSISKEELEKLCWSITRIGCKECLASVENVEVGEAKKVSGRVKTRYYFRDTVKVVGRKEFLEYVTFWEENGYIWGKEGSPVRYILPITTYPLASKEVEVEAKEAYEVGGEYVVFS
T1 sequence 2: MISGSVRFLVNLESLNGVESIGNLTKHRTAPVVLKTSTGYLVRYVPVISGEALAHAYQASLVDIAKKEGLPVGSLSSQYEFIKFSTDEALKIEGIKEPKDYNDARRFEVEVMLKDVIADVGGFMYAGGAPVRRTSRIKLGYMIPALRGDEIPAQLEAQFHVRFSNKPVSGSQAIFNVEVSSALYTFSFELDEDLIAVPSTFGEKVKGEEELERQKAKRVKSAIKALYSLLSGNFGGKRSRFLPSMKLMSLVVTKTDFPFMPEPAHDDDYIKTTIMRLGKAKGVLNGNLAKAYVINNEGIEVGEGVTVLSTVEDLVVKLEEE
As to the kind of experiment: fluorescence anisotropy. In general terms: In fluorescence polarisation assays a small probe gives low polarisation when free and higher when bound to something large.

The target in data set [2] is T2, Csa5 (UniProt Q97Y90 1-150).
T2 sequence: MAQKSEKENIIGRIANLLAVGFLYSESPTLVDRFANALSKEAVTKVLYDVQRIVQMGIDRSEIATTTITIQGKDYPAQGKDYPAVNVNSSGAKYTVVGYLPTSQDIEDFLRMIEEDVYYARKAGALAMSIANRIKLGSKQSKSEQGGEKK
As to the kind of experiment: fluorescence anisotropy.

Data set [3] deals with the molecule itself. As to the kind of experiment: crystal structure.
Data set [4] deals with the molecule itself. The data set is described as follows: SEC. (Size exclusion chromatography separates by hydrodynamic size, large species first.)

B1: crRNA (spacer 26, CRISPR locus A) (ssRNA)
RNA: AUUGAAAGACCAUACCCAACUUCUAACAACGUCGUUCUUAACAACGGAUUAAUCCCAAAA
In the case of B1, in data set [1], the Kd – broadly, a measure of binding affinity in units of concentration – turned out to be 1.38 ± 0.14 µM. The binding result in data set [2] is “no binding”.

B2: crRNA/protospacer heteroduplex (DNA:RNA)
RNA: B1 RNA
DNA: GATCCTCTCCACGTTGTTAAGAACGACGTTGTTAGAAGTTGGGTATGGTTGGCTG
Regarding B2, the binding result in data set [2] is on record as “no binding”.
As to CCTCGAGGGATCCGTCCTAGCAAGCCGCTGCTACCGGAAGCTTCTGGACC (ssDNA) [non-target ssDNA], the binding result in data set [2] was “no binding”.

B3: Sso1398 (Csa5 paralog), selenomethionyl derivative (natural protein, S. solfataricus)
chain: MEASEPVAETISKRFWTLIKMLRFYVVLRRFGYIDPLIYSIDPKQIKDVLSEALREFVSYTSSSSSRSIVIYDDPKNPVTAQAPCLVVAKRDEIPQNFPSIYRYTIYKIDKSSEYCISPLVVNDKYATLITPNESVIKEFFDKLDSNIQYARVLASLAVGGE
modifications: selenomethionine in place of methionine
For the molecule B3, the binding result in data set [3] was “binds”.

B4: Sso1398 wild type (Csa5 paralog) (natural protein, S. solfataricus)
chain: B3 chain
On to B4, for which the binding result in data set [4] is listed as “binds”.
